The values that follow come from US20090175866A1, “TREATMENT OF B-CELL MALIGNANCIES” (priority 2004, published 2009).

Experiment [1] relates to UTMC2 cells. Nature of the experiment: Apoptosis of UTMC2 cells co-cultured with bone marrow stroma cells (annexin V). To be noted: 5 μg/ml, 72 hours (FIG. 5 legend). Type of experiment: cell-based, human. As to the method: FIG. 5 is a graph showing apoptosis of UTMC2 cells in response to treatment with PRO-001 in the presence of BMSCs (stroma). BMSCs alone (stroma) or BMSCs together with UTMC2 cells (stroma/UTMC2) were cultured with control antibody or 5 μg/ml PRO-001 for 72 hours and apoptosis was assessed by means of a flow cytometry assay of annexin V binding and propidium iodide exclusion. Values represent means of quadruplicate cultures ±SD.
For studies of apoptosis, cells were seeded at an initial density of 2.5×10^5/ml in 6 well plates coated with BMSCs and supplemented with control (vehicle or antibody) or 5 μg/ml PRO-001 and cultured for […]. Apoptosis was determined by Annexin V staining (Boehringer Mannheim, Indianapolis, Ind.) and analyzed by flow cytometry. Annexin V is a protein that binds specifically to phosphotidyl-serine in the cell membrane. Binding occurs once the membrane has started to break down and the phospholipids are released into the extracellular media.

In experiment [2] the test system is UTMC2 cells. Nature of the experiment: Viability of stimulated UTMC2 myeloma cells (MTT). It counts as cell-based, human. Here is the method:
FIG. 2 is a graph showing the viability of human myeloma cell lines in the presence of PRO-001. Viability is reported as the ratio between the optical density (OD) in the presence of FGF±inhibitor and the OD in the absence of FGF.
FIG. 4 is a graph showing viability of UTMC2 cells treated with FGF, IL6 or IGF-1. The dark bars represent stimulated cells treated with a control antibody; the dotted bar represents stimulated cells treated with 5 μg/ml PRO-001; the square-filled bar represents stimulated cells treated with 100 nM PD173074.
Non-transformed rat chondrocyte cell line expressing PGFR3 in an inducible manner (RCJ-FGFR3) has been described previously (Rauchenberger R. et al. J. Biol. Chem. 2003; 278:38194-205). Cells were maintained in α-Minimum Essential Media supplemented with 15% fetal calf serum (FCS), 2 mM L-Glutamine, 100 U/ml penicillin, 100 μg/ml streptomycin, 600 μg/ml G418 (Gibco BRL, Ontario, Canada), 2 μg/ml Tetracyclin (Sigma, Ontario, Canada), and 50 μg/ml HygromycinB (Gibco BRL). FGFR3 expression was induced by removal of tetracyclin and serum starvation. […]
Cell viability was assessed by 3-(4,5-dimethylthiazol)-2,5-diphenyl tetrazolium (MTT) or (2,3-bis(2-methoxy-4-nitro-5-sulphophenyl)-5-[(phenylamino) carbonyl]-2H-tetrazolium hydroxide (XTT) dye absorbance where indicated. Cells were seeded in 96-well plates at a density of 20,000 (FDCP-1 cells), 5,000 (B9 cells) or 25,000 cells (MM cell lines) per well in culture medium. Cells were incubated in the absence or presence of one of the following cytokines: 10 ng/ml FGF9 and 5 μg/ml heparin, 1% murine IL-6, 50 ng/ml IGF-1 or 50 ng/ml human IL-6 where indicated and increasing concentrations of PRO-001, control antibody (purified human Fab) or 100 nM PD173074. […]
PRO-001 was tested against t (4; 14) myeloma cell lines expressing FGFR3: UTMC2 cells—expressing WT FGFR3, and H929 cells—expressing WT FGFR3 but harboring a downstream activating mutation of N-Ras. Cell growth in the presence of FGF and PRO-001 (5 μg/ml), control antibody (isotype) or 100 nM PD173074 was determined by MTT assay. […]

B1: PRO-001: human anti-FGFR3 Fab from HuCAL library; VH-CDR3 SEQ ID NO:1, VL-CDR3 SEQ ID NO:10; VH SEQ ID NO:19, VL SEQ ID NO:28 (antibody, V domains shown)
VH: QVQLQQSGPGLVKPSQTLSLTCAISGDSVSSNSAAWNWIRQSPGRGLEWLGRTYYRSKWYNDYAVSVKSRITINPDTSKNQFSLQLNSVTPEDTAVYYCARSYYPDFDYWGQGTLVTVSS
VL: DIELTQPPSVSVAPGQTARISCSGDALGDKYASWYQQKPGQAPVLVIYDDSDRPSGIPERFSGSNSGNTATLTISGTQAEDEADYYCQSYDGPDLWVFGGGTKLTVLGQ
For the molecule B1, the “Apoptosis of UTMC2 cells co cultured with BMSC” value in the experiment on UTMC2 cells [1] is listed as “induces a high level of apoptosis”. In addition, in the experiment with UTMC2 cells [2] (5 μg/ml PRO-001), the “Viability of UTMC2 cells stimulated with IGF-1” value is recorded as “remain sensitive” and the “Viability of UTMC2 cells stimulated with IL6” value is “remain sensitive”. For the same molecule, the “Proliferation of FGF-stimulated UTMC2 cells” value in the experiment on UTMC2 cells [2] (5 μg/ml, MTT) was “significantly inhibited”.
